The results in this text go back to patent US20040191860A1.

Assay [1] has as its target r150, 150 kDa GPI-anchored TGF-β1 binding protein (membrane anchored form) (human) (UniProt Q6YHK3). Description: competition of unlabeled TGF-β3 with 125I-TGF-β1 on keratinocytes, affinity cross-link labeling, densitometry.
The target of assay [2] is Transforming growth factor-β1 (UniProt P01137). Description: 125I-TGF-β1 (50 pM) binding to MvLu1 cells with concentrated supernatant of untreated HaCaT cells (r150 released by an endogenous phospholipase), dose 1.
Sequence of Transforming growth factor-β1 (P01137 279-390 limits assumed): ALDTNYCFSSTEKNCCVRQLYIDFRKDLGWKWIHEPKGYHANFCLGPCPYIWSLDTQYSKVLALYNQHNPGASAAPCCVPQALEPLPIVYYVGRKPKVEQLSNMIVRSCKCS
The target is the same in assay [3]. The assay is described as follows: 125I-TGF-β1 (50 pM) binding to MvLu1 cells with concentrated supernatant of PIPLC treated HaCaT cells, dose 2.
For assay [4] the target is unchanged. The assay is described as follows: 125I-TGF-β1 (50 pM) binding to MvLu1 cells with concentrated supernatant of PIPLC treated HaCaT cells, dose 1 (one T-25 flask, about 1x10^6 cells).
Assay [5] has the same target. Description: 125I-TGF-β1 (50 pM) binding to MvLu1 cells with concentrated supernatant of untreated HaCaT cells (r150 released by an endogenous phospholipase), dose 2.

Sequence of r150, 150 kDa GPI-anchored TGF-β1 binding protein (membrane anchored form) (human) (Q6YHK3 other isoform, or with tags, fused parts or gaps limits assumed): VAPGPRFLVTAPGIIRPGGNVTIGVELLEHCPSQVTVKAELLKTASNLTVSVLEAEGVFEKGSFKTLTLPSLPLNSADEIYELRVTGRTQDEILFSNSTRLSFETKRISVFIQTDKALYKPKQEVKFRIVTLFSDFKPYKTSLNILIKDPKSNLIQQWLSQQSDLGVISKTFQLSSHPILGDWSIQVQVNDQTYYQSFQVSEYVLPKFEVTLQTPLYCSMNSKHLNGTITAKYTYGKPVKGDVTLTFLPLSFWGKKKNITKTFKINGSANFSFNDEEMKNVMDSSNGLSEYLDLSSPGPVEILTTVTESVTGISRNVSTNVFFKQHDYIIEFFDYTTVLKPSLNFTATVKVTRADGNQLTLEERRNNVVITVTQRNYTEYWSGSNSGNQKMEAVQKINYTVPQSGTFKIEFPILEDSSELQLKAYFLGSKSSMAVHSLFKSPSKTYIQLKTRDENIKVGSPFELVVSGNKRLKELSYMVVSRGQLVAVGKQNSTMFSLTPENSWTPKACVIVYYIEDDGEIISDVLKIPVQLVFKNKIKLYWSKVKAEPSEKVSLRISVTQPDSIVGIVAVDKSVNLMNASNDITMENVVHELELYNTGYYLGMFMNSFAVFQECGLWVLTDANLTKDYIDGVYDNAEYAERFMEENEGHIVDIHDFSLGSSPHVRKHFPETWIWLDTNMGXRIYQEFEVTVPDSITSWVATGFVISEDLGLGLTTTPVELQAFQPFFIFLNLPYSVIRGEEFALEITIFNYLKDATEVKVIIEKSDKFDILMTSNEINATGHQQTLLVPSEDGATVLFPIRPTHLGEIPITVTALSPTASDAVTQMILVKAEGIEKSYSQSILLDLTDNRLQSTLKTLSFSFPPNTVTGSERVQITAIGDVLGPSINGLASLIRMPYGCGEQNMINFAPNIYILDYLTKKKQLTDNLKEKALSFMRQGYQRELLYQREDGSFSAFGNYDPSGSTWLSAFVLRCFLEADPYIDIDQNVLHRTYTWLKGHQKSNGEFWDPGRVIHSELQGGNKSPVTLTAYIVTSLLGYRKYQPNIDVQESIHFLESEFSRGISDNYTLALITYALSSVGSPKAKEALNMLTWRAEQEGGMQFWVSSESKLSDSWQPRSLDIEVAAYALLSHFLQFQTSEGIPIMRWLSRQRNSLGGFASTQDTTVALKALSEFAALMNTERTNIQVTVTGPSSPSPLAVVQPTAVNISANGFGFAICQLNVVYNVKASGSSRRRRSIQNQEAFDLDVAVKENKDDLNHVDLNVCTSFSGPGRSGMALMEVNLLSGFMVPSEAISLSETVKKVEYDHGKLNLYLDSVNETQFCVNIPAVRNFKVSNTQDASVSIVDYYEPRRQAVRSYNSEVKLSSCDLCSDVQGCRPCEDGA

Regarding “Transforming growth factor-β3 (from UniProt P10600 301-412) (ligand)”, in assay [1], the ratio of the concentration for half-maximal inhibition of 125I-TGF-β1 binding, r150 against the types I or II receptors is 6 fold.
“soluble r150 (released from the cell surface by PIPLC or by an endogenous phospholipase C) (from UniProt Q6YHK3 22-1420) (receptor)”: the percent inhibition of 125I-TGF-β1 binding to MvLu1 cells in assay [2] was found to be 15%; in assay [3], 50%; in assay [4], 33%; in assay [5], 31%.
